Here are results for two molecules from paper PMC3443378 (Molecular Microbiology, 2012).

Some targets named below: PrfA S71L/G145S (Listeria monocytogenes P14, UniProt P22262 1-237, S71L;G145S); PrfA L48F/G145S (Listeria monocytogenes P14, UniProt P22262 1-237, L48F;G145S); PrfA F29M (Listeria monocytogenes P14, UniProt P22262 1-237, F29M); PrfA S71L (Listeria monocytogenes P14, UniProt P22262 1-237, S71L); PrfA E36Q (Listeria monocytogenes P14, UniProt P22262 1-237, E36Q); PrfA L48F (Listeria monocytogenes P14, UniProt P22262 1-237, L48F); PrfA V80L (Listeria monocytogenes P14, UniProt P22262 1-237, V80L); PrfA WT (Listeria monocytogenes P14, UniProt P22262 1-237); PrfA E36R (Listeria monocytogenes P14, UniProt P22262 1-237, E36R); PrfA Y63W (Listeria monocytogenes P14, UniProt P22262 1-237, Y63W); PrfA Y63W/G145S (Listeria monocytogenes P14, UniProt P22262 1-237, Y63W;G145S); PrfA I69W (Listeria monocytogenes P14, UniProt P22262 1-237, I69W); PrfA*sup G145S/E173G (Listeria monocytogenes P14, UniProt P22262 1-237, G145S;E173G); PrfA L120V (Listeria monocytogenes P14, UniProt P22262 1-237, L120V).

Experiment in all cases: SPR
On the technique in general: In SPR one partner is held on a chip, and binding of the other changes the refractive index at the surface.

B1: PplcA/hly PrfA box 40-mer (dsDNA)
DNA 1: TGTCCCTTTATCGTCGTTAACAAATGTTAATGCCTCGACA
DNA 2: TGTCGAGGCATTAACATTTGTTAACGACGATAAAGGGACA
On to B1, for which the Kd with PrfA S71L/G145S was 75 1; with PrfA L48F/G145S it was 15 1; in the series with PrfA F29M, 288 45; in the series with PrfA S71L, 695 42; with PrfA E36Q, 1360 11; in the series with PrfA L48F, 5260 101. The Kd with PrfA V80L was 1780 47; with PrfA WT, 1100 49; with PrfA E36R it was 1440 13; with PrfA Y63W, 1160 86; with PrfA Y63W/G145S, 9 1; with PrfA I69W, 347 43. Besides, the Kd is 10500 317 in the series with PrfA*sup G145S/E173G and 3120 37 in the series with PrfA L120V.

B2: PactA PrfA box 40-mer (dsDNA)
DNA 1: GGTCGGAGTTAACTGATTAACAAATGTTAGAGAAAACTTA
DNA 2: TAAGTTTTCTCTAACATTTGTTAATCAGTTAACTCCGACC
Regarding B2, the Kd with PrfA S71L/G145S was 67 1; in the series with PrfA L48F/G145S, 239 60; in the series with PrfA F29M it was 267 15; with PrfA S71L, 741 59; with PrfA E36Q it was 801 67; in the series with PrfA L48F, 20800 262. In addition, the Kd was 1400 54 with PrfA V80L; 1360 24 with PrfA WT; 1080 10 with PrfA E36R; 1660 14 with PrfA Y63W; 29 1 in the series with PrfA Y63W/G145S; 392 76 with PrfA I69W. Further, the Kd is 32000 528 with PrfA*sup G145S/E173G and 1590 17 with PrfA L120V.
